These results are taken from patent US20250027068.

The labels stand for the following.
B1: PRT-415 (protein)
chain: MTITSVWTKGVTPPTPEDFRYNNEDVLHAPYVANQGWYDITKTFDGKDNLLCGAATAGNMLHWWFDQNKEEIERYLKKHPEKQKIIFNNQELFDVKAAIDTKDSQTNSKLFNYFLDKAFPNLSARQLGVMPDLVLDMFINGYYLNLGKTQSTDVNRPYQDKDKRGGIFDAVFTRGDQTTLLTARHDLKNKGLNEISDLIKQELTEGKALALSHTYANVRINHVINLWGADFDAEGNLIAIYVTDSDANASIGMKKYFVGVNANGKVAISAKKIEGDNIGAQVLGLFTLSTGQDIWQKLS
B2: PRT-416 (protein)
chain: B1 chain with L115R, G147P
B3: PRT-424 (protein)
chain: B1 chain with L115R, T290L
B4: PRT-423 (protein)
chain: B1 chain with L115R, V260R
B5: PRT-439 (protein)
chain: MSQTEDSESLQRLRDIEDFQAEKKKQNVVYTKWLDGVDVKDHDFRKIVDGNIAYYATPLLNGRGFYDINKDFNRDSDKCAAAVAANMFHYWLDRNRDNVDRFLRQNPEKHGIIELPDGQLKLSDFLNTYESDDGYRDKSKLFDFISNNFNGPVWTDKLLDNYINGYAYNYKYGRLIEDPTKNTSKINFFKEVFNEKILTNNHSIRNQNEFSVLLSEALYTGKAIGLSYGPAGLRHSLGHIISVWGADLDADGNVVAIYVTDSDDKKLTIGDERVGLKRYKISTDDEGRLRLTAYEETHNTGGQIRGLWTLDTGKQAWADYFDKTEQTGTDQAEQ
B6: PRT-442 (protein)
chain: B5 chain with S76N, L175T
B7: PRT-400 (protein)
chain: MVTSVWTKGVTPPADFTQGEDVFHAPYDANQGWYDITKTFNGKDDLLCGAATAGNMLHWWFDQNKEYIEAYLKKHPEKQKIMFGDQELLDVRKAINTKGSQKNSELFNYFRDKAFPNLSARRLGVMPDLVLDMFINGYYLNVTKTQTTDVNRTYQEKDKRGGIFDAVFTRGDQSKLLTSRHDFKEKGLKEISDLIKQELTEGKALGLSHTYANVRINHVINLWGADFDSDGNLKAIYVTDSDSNASIGMKKYFVGVNSAGKVAISAKEIKEDNIGAQVLGLFTLSTGQDIWNQTN
B8: PRT-408 (protein)
chain: B7 chain with D28V, M126F
B9: PRT-384 (protein)
chain: MVTSVWTKGVTPPTNFTYGEDVLHAPYVANQGWYDITKTFNGKDDLLCGAATAGNMLHWWFDQNKEQIENYLKKHPEKQKINFNGEQMFDVKEAIDTKDSQLDSKLFEYFKEKAFPNLSTKHLGVFPDHVIDMFINGYRLSLTNHGPTPVKRGSKDPRGGIFDAVFTRGDQSKLLTNRHDFKEKTLKEISDLIKQELTEGKALGISHTYANVRINHVINLWGADFDAEGNLEAIYVTDSDSNASIGMKKYFVGVNSNGKVAISAKEIEEDNIGAQVLGLFTLSTGQDIWNQTN
B10: PRT-392 (protein)
chain: B9 chain with N117Y, D170V

Changes are numbered by the printed parent chain.

The series concerns the target pooled human IgG (human IgG1, 2, 3 and 4).
B1 came in with an Enzyme Activity Endpoint Assay (purified): Fab′2 of 46 ng/µL, an Enzyme Activity Endpoint Assay (purified): Fc of 225 ng/µL, an Enzyme Activity Endpoint Assay (purified): IgG of 164 ng/µL and an Enzyme Activity Endpoint Assay (purified): scIgG of 630 ng/µL. This protein also gave an Enzyme Activity Endpoint Assay: Fab′2 of 46 ng/µL, an Enzyme Activity Endpoint Assay: Fc of 225 ng/µL, an Enzyme Activity Endpoint Assay: IgG of 164 ng/µL and an Enzyme Activity Endpoint Assay: scIgG of 630 ng/µL.

B2 came in with an Enzyme Activity Endpoint Assay: Fab′2 of 125 ng/µL, an Enzyme Activity Endpoint Assay: Fc of 258 ng/µL, an Enzyme Activity Endpoint Assay: IgG of 96 ng/µL and an Enzyme Activity Endpoint Assay: scIgG of 453 ng/µL.

The protein B3 displayed an Enzyme Activity Endpoint Assay: Fab′2 of 618 ng/µL, an Enzyme Activity Endpoint Assay: Fc of 348 ng/µL, an Enzyme Activity Endpoint Assay: IgG of 88 ng/µL and an Enzyme Activity Endpoint Assay: scIgG of 0 ng/µL.

Protein B4 returned an Enzyme Activity Endpoint Assay (purified): Fab′2 of 398 ng/µL, an Enzyme Activity Endpoint Assay (purified): Fc of 0 ng/µL, an Enzyme Activity Endpoint Assay (purified): IgG of 1660 ng/µL and an Enzyme Activity Endpoint Assay (purified): scIgG of 0 ng/µL. Also, the Enzyme Activity Endpoint Assay: Fab′2 is 398 ng/µL, the Enzyme Activity Endpoint Assay: Fc was found to be 0 ng/µL, the Enzyme Activity Endpoint Assay: IgG turned out to be 1660 ng/µL and the Enzyme Activity Endpoint Assay: scIgG worked out at 0 ng/µL.

Protein B5 gave an Enzyme Activity Endpoint Assay (purified): Fab′2 of 179 ng/µL, an Enzyme Activity Endpoint Assay (purified): Fc of 191 ng/µL, an Enzyme Activity Endpoint Assay (purified): IgG of 325 ng/µL and an Enzyme Activity Endpoint Assay (purified): scIgG of 528 ng/µL. Further, the Enzyme Activity Endpoint Assay: Fab′2 was determined as 179 ng/µL, the Enzyme Activity Endpoint Assay: Fc came to 191 ng/µL, the Enzyme Activity Endpoint Assay: IgG amounted to 325 ng/µL and the Enzyme Activity Endpoint Assay: scIgG worked out at 528 ng/µL.

The protein B6 registered an Enzyme Activity Endpoint Assay: Fab′2 of 18 ng/µL, an Enzyme Activity Endpoint Assay: Fc of 169 ng/µL, an Enzyme Activity Endpoint Assay: IgG of 680 ng/µL and an Enzyme Activity Endpoint Assay: scIgG of 381 ng/µL.

In the case of B7, the Enzyme Activity Endpoint Assay (purified): Fab′2 is 556 ng/µL, the Enzyme Activity Endpoint Assay (purified): Fc was 333 ng/µL, the Enzyme Activity Endpoint Assay (purified): IgG worked out at 176 ng/µL and the Enzyme Activity Endpoint Assay (purified): scIgG is 0 ng/µL. The same protein came in with an Enzyme Activity Endpoint Assay: Fab′2 of 556 ng/µL, an Enzyme Activity Endpoint Assay: Fc of 333 ng/µL, an Enzyme Activity Endpoint Assay: IgG of 176 ng/µL and an Enzyme Activity Endpoint Assay: scIgG of 0 ng/µL.

Consider B8, for which the Enzyme Activity Endpoint Assay: Fab′2 was 564 ng/µL, the Enzyme Activity Endpoint Assay: Fc turned out to be 334 ng/µL, the Enzyme Activity Endpoint Assay: IgG was 179 ng/µL and the Enzyme Activity Endpoint Assay: scIgG is 0 ng/µL.

B9 registered an Enzyme Activity Endpoint Assay (purified): Fab′2 of 365 ng/µL, an Enzyme Activity Endpoint Assay (purified): Fc of 0 ng/µL, an Enzyme Activity Endpoint Assay (purified): IgG of 1510 ng/µL and an Enzyme Activity Endpoint Assay (purified): scIgG of 0 ng/µL. The protein further registered an Enzyme Activity Endpoint Assay: Fab′2 of 365 ng/µL, an Enzyme Activity Endpoint Assay: Fc of 0 ng/µL, an Enzyme Activity Endpoint Assay: IgG of 1510 ng/µL and an Enzyme Activity Endpoint Assay: scIgG of 0 ng/µL.

With B10, the Enzyme Activity Endpoint Assay (purified): Fab′2 was 513 ng/µL, the Enzyme Activity Endpoint Assay (purified): Fc turned out to be 354 ng/µL, the Enzyme Activity Endpoint Assay (purified): IgG worked out at 0 ng/µL and the Enzyme Activity Endpoint Assay (purified): scIgG came to 196 ng/µL. The protein further gave an Enzyme Activity Endpoint Assay: Fab′2 of 513 ng/µL, an Enzyme Activity Endpoint Assay: Fc of 354 ng/µL, an Enzyme Activity Endpoint Assay: IgG of 0 ng/µL and an Enzyme Activity Endpoint Assay: scIgG of 196 ng/µL.
